Assay [1] concerns the target c-type human lysozyme (human) (UniProt P61626).
In assay [2] the target is AP205 capsid virus-like particle displaying the complementary Catcher (SpyCatcher-VLP) (not stated | Acinetobacter phage AP205). Put plainly: SDS-PAGE of covalent Tag/Catcher coupling (densitometry); N-SliC or C-SliC mixed with complementary SpyCatcher VLPs at a molar ratio of 1:3, 2 h, room temperature, PBS; covalently coupled band at ~45 kDa; coupling efficiency by densitometry (ImageQuant).

Sequence of UniProt P61626 (P61626 19-148): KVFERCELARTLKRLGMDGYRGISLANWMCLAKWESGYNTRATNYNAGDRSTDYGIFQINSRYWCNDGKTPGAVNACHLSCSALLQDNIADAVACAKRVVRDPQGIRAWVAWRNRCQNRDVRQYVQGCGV

Turning to “SliC with the N-terminal SpyTag (N-SliC)”, the lytic activity of HL (2.5 µM) on DQ lysozyme substrate (EnzChek Lysozyme Assay Kit), N-SliC 0-5 µM, 30 min at 37°C before substrate in assay [1] was more than 1.25 µM. In assay [2], the cVLP subunits carrying SliC (of 180) (subunits per cVLP) amounted to 140 and the coupling efficiency was 77%.

The values above are taken from article PMC10715030.
